From patent US20110086770A1 (ANAPHORE, published 2011)

T1: recombinant human IL-23R/Fc chimera (R&D Systems) (human, UniProt Q5VWK5 24-353)
T1 construct: bought; also called human IL-23R/Fc fusion protein; rhIL23RFc
T1 sequence (looked up): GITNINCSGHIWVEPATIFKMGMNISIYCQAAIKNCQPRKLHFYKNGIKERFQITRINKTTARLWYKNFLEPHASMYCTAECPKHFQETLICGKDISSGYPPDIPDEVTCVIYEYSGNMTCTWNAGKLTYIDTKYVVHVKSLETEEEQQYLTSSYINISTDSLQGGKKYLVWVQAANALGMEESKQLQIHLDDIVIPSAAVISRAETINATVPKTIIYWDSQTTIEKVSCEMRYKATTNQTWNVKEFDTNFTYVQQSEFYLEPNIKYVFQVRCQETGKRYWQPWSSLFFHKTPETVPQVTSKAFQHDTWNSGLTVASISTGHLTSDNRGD


target: T1, recombinant human IL-23R/Fc chimera …; assay: competition ELISA against IL-23
Description: Assays were performed generally as follows. Individual wells in Immulon HB2 plates were incubated overnight at 4° C. with 100 μL PBS containing 100 ng of an anti-human IgG Fc (R&D MAB 110 clone 97924). Plates were washed five times with PBS/0.05% Tween 20, and wells were incubated for 1.5 h at RT with 100 μL each of PBS containing 50 ng of recombinant human IL-23R/Fc. […] Competitor was included at a final concentration of 1 μg/mL. After incubation, plates were washed as described and wells were incubated for 40 min at RT with 100 μL each of PBS containing a 1:5000 dilution of streptavidin-HRP conjugate (Pierce catalog no. 21130). After washing, wells were incubated with 100 μL each of TMB (BioFX Lab catalog no. TMBH-1000-0) for up to 30 min at RT. Reactions were stopped with an equal volume of 0.2 M sulfuric acid.

| Ratio IC50 to 056-53.H4E IC50 [ratio] | Binder |
| --- | --- |
| 1.6 | 101-51-1A3 ATRIMER (designed binder, ATRIMER is a homotrimer; one protomer is given., not shown: C-terminal purification tag: Myc/His6 (pANA4) or HA-StrepII (pANA10)) EPPTQKPKKIVNAKKDVVNTKMFEELKSRLDTLAQEVALLKEQQALQTVCLKGTKVHMKCFLAFTQTKTFHEASEDCISRGGTLSTPQTGSENDALYEYLRQSVGNEAEIWLGLNGSALTNTWVDMTGARIAYKNWEHQPVYQPGGGWGVFGENCAVLSGAANGKWFDKRCRDQLPYICQFGIV |
| 0.3 | 101-54-4B6 ATRIMER (designed binder) EPPTQKPKKIVNAKKDVVNTKMFEELKSRLDTLAQEVALLKEQQALQTVCLKGTKVHMKCFLAFTQTKTFHEASEDCISRGGTLSTPQTGSENDALYEYLRQSVGNEAEIWLGLNGSALTNTWVDMTGARIAYKNWEPPGPHHPMGGFGVFGENCAVLSGAANGKWFDKRCRDQLPYICQFGIV |
| 0.6 | 101-80-5E8 ATRIMER (designed binder) EPPTQKPKKIVNAKKDVVNTKMFEELKSRLDTLAQEVALLKEQQALQTVCLKGTKVHMKCFLAFTQTKTFHEASEDCISRGGTLSTPQTGSENDALYEYLRQSVGNEAEIWLGLNGSALTNTWVDMTGARIAYKNWEPPEPLHPMGGFGVFGENCAVLSGAANGKWFDKRCRDQLPYICQFGIV |
| 1.6 | 105-08-1A4 ATRIMER (designed binder) EPPTQKPKKIVNAKKDVVNTKMFEELKSRLDTLAQEVALLKEQQALQTVCLKGTKVHMKCFLAFTQTKTFHEASEDCISRGGTLSTPQTGSENDALYEYLRQSVGNEAEIWLGLNGSAVTNTWVDMTGARIAYKNWETEITAQPDGGFGYFGENCAVLSGAANGKWFDKRCRDQLPYICQFGIV |
| 8.7 | 101-51-1A10 ATRIMER (designed binder, ATRIMER is a homotrimer; one protomer is given., not shown: C-terminal purification tag: Myc/His6 (pANA4) or HA-StrepII (pANA10)) EPPTQKPKKIVNAKKDVVNTKMFEELKSRLDTLAQEVALLKEQQALQTVCLKGTKVHMKCFLAFTQTKTFHEASEDCISRGGTLSTPQTGSENDALYEYLRQSVGNEAEIWLGLNGSALTNTWVDMTGARIAYKNWEHPLPPQPSGGFGYFGENCAVLSGAANGKWFDKRCRDQLPYICQFGIV |
| 2.6 | 101-51-1A6 ATRIMER (designed binder, ATRIMER is a homotrimer; one protomer is given., not shown: C-terminal purification tag: Myc/His6 (pANA4) or HA-StrepII (pANA10)) EPPTQKPKKIVNAKKDVVNTKMFEELKSRLDTLAQEVALLKEQQALQTVCLKGTKVHMKCFLAFTQTKTFHEASEDCISRGGTLSTPQTGSENDALYEYLRQSVGNEAEIWLGLNGSALTNTWVDMTGARIAYKNWENNLSAQPRGGFGYFGENCAVLSGAANGKWFDKRCRDQLPYICQFGIV |
| 2.9 | 105-08-1A7 ATRIMER (designed binder, Homotrimer of the given chain (ATRIMER complex).) EPPTQKPKKIVNAKKDVVNTKMFEELKSRLDTLAQEVALLKEQQALQTVCLKGTKVHMKCFLAFTQTKTFHEASEDCISRGGTLSTPQTGSENDALYEYLRQSVGNEAEIWLGLNGSVRTNTWVDMTGARIAYKNWETEITAQPDGGFGYFGENCAVLSGAANGKWFDKRCRDQLPYICQFGIV |
| 1 | 101-54-4B3 ATRIMER (designed binder) EPPTQKPKKIVNAKKDVVNTKMFEELKSRLDTLAQEVALLKEQQALQTVCLKGTKVHMKCFLAFTQTKTFHEASEDCISRGGTLSTPQTGSENDALYEYLRQSVGNEAEIWLGLNGSALTNTWVDMTGARIAYKNWELPPPGHPQGGFGVFGENCAVLSGAANGKWFDKRCRDQLPYICQFGIV |
| 3.7 | 101-51-1A8 ATRIMER (designed binder, ATRIMER is a homotrimer; one protomer is given., not shown: C-terminal purification tag: Myc/His6 (pANA4) or HA-StrepII (pANA10)) EPPTQKPKKIVNAKKDVVNTKMFEELKSRLDTLAQEVALLKEQQALQTVCLKGTKVHMKCFLAFTQTKTFHEASEDCISRGGTLSTPQTGSENDALYEYLRQSVGNEAEIWLGLNGSALTNTWVDMTGARIAYKNWERTPPWQPEGGFGYFGENCAVLSGAANGKWFDKRCRDQLPYICQFGIV |
| 1.1 | 101-54-4A12 ATRIMER (designed binder) EPPTQKPKKIVNAKKDVVNTKMFEELKSRLDTLAQEVALLKEQQALQTVCLKGTKVHMKCFLAFTQTKTFHEASEDCISRGGTLSTPQTGSENDALYEYLRQSVGNEAEIWLGLNGSRRSGVWVDMTGARIAYKNWEPPGPAHPQGGFGVFGENCAVLSGAANGKWFDKRCRDQLPYICQFGIV |
